In patent US20220324996A1 (published 2022):

Key:
human SIRP-γ = target: T1, human SIRP-γ (human, UniProt Q9P1W8 29-147); assay: SPR
T1 construct: Soluble SIRP analyte in SPR; also called hSIRPg; SIRPg

human SIRP-α v1 = target: T2, human SIRP-α v1 (human, UniProt P78324 31-149); assay: SPR
T2 construct: Soluble SIRP analyte in SPR; also called hSIRPa v1; Human V1
Description: The interactions of anti-SIRPα antibodies with SIRPα from various species (human v1, human v2, cynomolgus, mouse 129, BL6, BALBc, NOD), SIRPβ and SIRPγ were analyzed using two methods, direct immobilization of the antibodies (via GLC chip) or capture via biotinylated Protein A (via NLC chip), according to the following protocols. All experiments were performed at 25° C. using a SPR-based ProteOn XPR36 biosensor (BioRad. Inc, Hercules, Calif.) equipped with GLC or NLC sensor chips. […] Purification was carried out by standard Protein A affinity column chromatography and eluted antibodies were stored in PBS buffer.

T2 sequence (P78324 31-149 limits assumed): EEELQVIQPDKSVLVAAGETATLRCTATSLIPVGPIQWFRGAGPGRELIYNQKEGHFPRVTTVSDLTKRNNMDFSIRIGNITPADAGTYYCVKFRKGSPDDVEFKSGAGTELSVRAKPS
T1 sequence (Q9P1W8 29-147 limits assumed): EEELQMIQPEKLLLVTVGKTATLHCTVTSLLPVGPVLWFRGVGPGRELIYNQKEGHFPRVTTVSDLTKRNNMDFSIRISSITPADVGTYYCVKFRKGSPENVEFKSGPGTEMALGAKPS

B1: Hum1/AB21_HC_Mutall (antibody, V domains shown)
VH: EVQLVESGGGVVQPGGSLRLSCAASGFTFSSNAMSWVRQAPGKGLEWVAGISAGGSDTYYPASVKGRFTISRDNSKNTLYLQMNSLRAEDTAVYYCARETWNHLFDYWGQGTLVTVSS
VL: SYELTQPPSVSVSPGQTARITCSGGSYSSYYYAWYQQKPGQAPVTLIYSDDKRPSNIPERFSGSSSGTTVTLTISGVQAEDEADYYCGGYDQSSYTNPFGGGTKLTVL
notes: also called Hum1/AB21mutall
B1 showed a Kd (human SIRP-γ) greater than 1 pM and a Kd (human SIRP-α v1) of no more than 10 pM.
